Data on five molecules can be found in patent publication US20220315655A1 (NOVIMMUNE, published 2022).

The target in assay [1] is T1, human PD-L1 on cells (hPD-L1-transfected CHO cells; IFNg-induced HT-1080 tumor cells) (human, UniProt Q9NZQ7 19-290).
T1 construct: whole, on cells; The CHO transfectants are negative for human CD47; HT-1080 cells also carry CD47; also called PD-L1+CD47+ HT-1080
The experiment in a line: cell-based competition: hPD-1-moFc binding to IFNg-induced PD-L1+CD47+ HT-1080 cells, CellInsight imaging.

Assay [2] addresses T2, recombinant human CD47 soluble protein (human, UniProt Q08722 19-139).
T2 construct: ELISA and BLI used different preparations; They are kept as one molecule because no limits are stated; also called His-tag human CD47
As to the kind of experiment: BLI (OctetRED96), His-tag CD47 on HIS1K biosensors, bsAb in solution, 1:1 global fit, 30 C.

Assay [3] concerns the target T3, recombinant human PD-L1 soluble protein (human, UniProt Q9NZQ7 19-238, biotinylated).
T3 construct: Bought soluble protein; also called hPD-L1; B7-H1
As to the kind of experiment: BLI (OctetRED96), biotinylated PD-L1 on streptavidin biosensors, bsAb in solution, 1:1 global fit, 30 C.

For assay [4], the target named is T4, recombinant cynomolgus monkey PD-L1 soluble protein (cynomolgus monkey, UniProt G7PSE7 19-238, biotinylated).
T4 construct: ELISA and BLI used proteins from different suppliers; They are kept as one molecule because no limits are stated; also called cyno PD-L1; cynomolgus PD-L1
The assay is described as above.

The target in assay [5] is T5, recombinant mouse PD-L1 soluble protein (mouse, UniProt Q9EP73 19-238, limits assumed, biotinylated).
T5 construct: ELISA and BLI used proteins from different sources; They are kept as one molecule because no limits are stated
The description is as above.

Assay [6] deals with T6, recombinant mouse CD47 soluble protein (mouse, UniProt Q61735 19-140, limits assumed).
T6 sequence (looked up): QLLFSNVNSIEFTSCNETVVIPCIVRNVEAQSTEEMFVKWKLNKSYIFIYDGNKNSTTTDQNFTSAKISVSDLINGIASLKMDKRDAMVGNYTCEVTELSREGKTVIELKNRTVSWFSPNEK
The experiment in a line: statement in the xenograft example; assay not named.

For assay [7], the target named is human CD47 on cells (Raji, Nalm-6, HT-1080 tumor cells; human red blood cells) (human, UniProt Q08722 19-323). As to the kind of experiment: cell-based or functional assay.
Assay [8] concerns the target T5, recombinant mouse PD-L1 soluble protein. The experiment in a line: statement in the xenograft example; assay not named.
For assay [9], the target named is T7, recombinant cynomolgus monkey CD47 soluble protein (cynomolgus monkey, UniProt A0A2K5X523 19-139).
T7 construct: also called cyno CD47; cynomolgus CD47
As to the kind of experiment: BLI (OctetRED96); set-up for cynomolgus CD47 not described.

Broadly, the IC50 is the midpoint of a concentration-inhibition curve. Broadly, the Kd is the equilibrium constant for the complex coming apart.

B1: S79 anti-PD-L1 mAb (antibody, human IgG4 S228P, lambda, V domains shown)
VH: not shown
VL: QSALTQPASVSGSPGQSITISCTGTSSDVFRPPLVSWYQQHPGKAPKLMIYFASLRPSGVSNRFSGSKSGNTASLTISGLQAEDEADYYCSSWDHTGDGHVFGGGTKLTVLG
notes: Bivalent monospecific anti-PD-L1 antibody with the common heavy chain and the S79 lambda light chain; also called S79 mAb; S79_Sc3_1G7_VLCL2 aPDL1 IGLV2-23
B1 registered an IC50 in assay [1] of 0.00252 nM.

B2: K33xS79 CD47xPD-L1 bispecific antibody (bispecific antibody, human IgG4 S228P, kappa, lambda)
heavy: not shown
light 1: DIQMTQSPSSLSASVGDRVTITCRASQSISSYLNWYQQKPGKAPKLLIYAASSLQSGVPSRFSGSGSGTDFTLTISSLQPEDFATYYCQQFHKRSPQKFGQGTKVEIKRTVAAPSVFIFPPSDEQLKSGTASVVCLLNNFYPREAKVQWKVDNALQSGNSQESVTEQDSKDSTYSLSSTLTLSKADYEKHKVYACEVTHQGLSSPVTKSFNRGEC
light 2: QSALTQPASVSGSPGQSITISCTGTSSDVFRPPLVSWYQQHPGKAPKLMIYFASLRPSGVSNRFSGSKSGNTASLTISGLQAEDEADYYCSSWDHTGDGHVFGGGTKLTVLGQPKAAPSVTLFPPSSEELQANKATLVCLISDFYPGAVTVAWKADSSPVKAGVETTTPSKQSNNKYAASSYLSLTPEQWKSHRSYSCQVTHEGSTVEKTVAPTECS
notes: also called K33xS79 bsAb
In assay [1], B2 yielded an IC50 of 0.00219 nM. The Kd in assay [2] stood at 56 nM; in assay [3], 0.5 nM; in assay [4] it was 1.35 nM; in assay [5], 0.52 nM. The binding result in assay [6] is “no binding”. Besides, the “in vitro phagocytosis potency (ADCP of Nalm-6 cells), macrophage donor D#096” value in assay [7] came to 29.2. For the same molecule, the “in vitro phagocytosis potency (ADCP of Nalm-6 cells), macrophage donor D#097” value in [7] is 16. Further, the “in vitro phagocytosis potency (ADCP of Nalm-6 cells), macrophage donor D#103” value in assay [7] came to 7.5.

B3: K106xS79 CD47xPD-L1 bispecific antibody (bispecific antibody, human IgG4 S228P, kappa, lambda)
heavy: not shown
light 1: not shown
light 2: B2 light 2
notes: also called K106xS79 bsAb
In assay [1], B3 yielded an IC50 of 0.00351 nM. The Kd in assay [2] worked out at 99 nM. Moreover, in assay [6], the binding result is “no binding”. The binding result in assay [8] was “binds”. Also, in assay [7], the “in vitro phagocytosis potency (ADCP of Nalm-6 cells), macrophage donor D#096” value amounted to 99.2; the “in vitro phagocytosis potency (ADCP of Nalm-6 cells), macrophage donor D#097” value is 94; the “in vitro phagocytosis potency (ADCP of Nalm-6 cells), macrophage donor D#103” value turned out to be 23.5.

B4: K38xS79 CD47xPD-L1 bispecific antibody (bispecific antibody, human IgG4 S228P, kappa, lambda)
heavy: not shown
light 1: DIQMTQSPSSLSASVGDRVTITCRASQVIANWLNWYQQKPGKAPKLLIYAGSHLQSGVPSRFSGSGSGTDFTLTISSLQPEDFATYYCQQMHPRAPKTFGQGTKVEIKRTVAAPSVFIFPPSDEQLKSGTASVVCLLNNFYPREAKVQWKVDNALQSGNSQESVTEQDSKDSTYSLSSTLTLSKADYEKHKVYACEVTHQGLSSPVTKSFNRGEC
light 2: B2 light 2
notes: also called K38xS79 bsAb; K38S79
B4 came in with an IC50 in assay [1] of 0.00083 nM. Besides, the Kd in [2] came to 13.6 nM; in assay [9] it was 16 nM. Besides, the figures for the binding result in assay [6] and in [8] were “no binding” and “binds”, respectively. Further, the “in vitro phagocytosis potency (ADCP of Nalm-6 cells), macrophage donor D#096” value in assay [7] was 5.6. The “in vitro phagocytosis potency (ADCP of Nalm-6 cells), macrophage donor D#097” value in [7] was found to be 5. In addition, the “in vitro phagocytosis potency (ADCP of Nalm-6 cells), macrophage donor D#103” value in assay [7] turned out to be 3.2.

B5: K38xS28 CD47xPD-L1 bispecific antibody (bispecific antibody, human IgG4 S228P, kappa, lambda)
heavy: not shown
light 1: B4 light 1
light 2: not shown
notes: also called K38xS28 bsAb
As to B5, the binding result in [6] and in assay [8] was “no binding” in each case.
